Test results from patent publication US20250075002A1 (BEIGENE SWITZERLAND, published 2025).
Read-outs that look alike come from different tables or passages of the source.

Key:
[1] = target: T1, human CD16B (NA2) on NK92mi cells (human, UniProt O75015 17-200); assay: flow cytometry on live NK92mi/CD16B NA2 cells, 300 nM VHH-Fc
T1 construct: also called NK92mi/CD16B (NA2); NK92mi/CD16B NA2
T1 chain: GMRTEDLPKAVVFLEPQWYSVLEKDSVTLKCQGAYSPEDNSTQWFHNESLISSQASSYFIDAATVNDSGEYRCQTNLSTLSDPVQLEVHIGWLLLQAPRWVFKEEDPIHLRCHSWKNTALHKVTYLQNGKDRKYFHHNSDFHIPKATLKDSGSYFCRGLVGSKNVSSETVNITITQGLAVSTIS

[2] = target: T2, human CD16A (F158) on NK92mi cells (human, UniProt P08637 17-254); assay: flow cytometry on NK92mi/CD16A 158F cells
T2 construct: NK92mi cells co-transduced with CD16A (F158) and FcRgamma cDNAs; also called NK92mi/CD16A F158

[3] = target: T3, human CD16B (NA1) on NK92mi cells (human, UniProt O75015 17-200); assay: flow cytometry on live NK92mi/CD16B NA1 cells, 300 nM VHH-Fc
T3 construct: also called NK92mi/CD16B (NA1); NK92mi/CD16B NA1
T3 chain: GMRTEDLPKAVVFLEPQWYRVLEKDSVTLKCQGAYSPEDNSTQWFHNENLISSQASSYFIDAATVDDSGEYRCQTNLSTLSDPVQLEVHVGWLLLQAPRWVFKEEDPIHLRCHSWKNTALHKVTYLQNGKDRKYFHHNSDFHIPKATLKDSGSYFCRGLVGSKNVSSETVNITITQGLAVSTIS

cyno CD16-His6 [4] = target: T4, cyno CD16-His6 (cyno, UniProt Q8SPW2 17-208); assay: SPR; VHH-Fc captured on anti-human Fc surface; column head prints 'KD (nM)', koff/kon shows M
T4 construct: Bought ECD fragment; not shown: six-histidine tag (His6)

human CD16B-His6 (NA2) [5] = target: T5, human CD16B-His6 (NA2) (human, UniProt O75015 17-200); assay: SPR; VHH-Fc captured on anti-human Fc surface; row head prints 'KD (nM)', taken as M like the rest of the table
T5 construct: Bought ECD fragment; also called CD16B NA2; human CD16B (NA2); not shown: six-histidine tag (His6)
T5 chain: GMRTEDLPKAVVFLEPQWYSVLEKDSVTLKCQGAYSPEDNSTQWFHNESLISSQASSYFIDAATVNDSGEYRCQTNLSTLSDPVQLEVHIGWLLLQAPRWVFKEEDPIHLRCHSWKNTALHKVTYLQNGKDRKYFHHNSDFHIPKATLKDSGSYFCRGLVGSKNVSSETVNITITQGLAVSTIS

human CD16B-His6 (NA1) [6] = target: T6, human CD16B-His6 (NA1) (human, UniProt O75015 17-200); assay: as above
T6 construct: Bought ECD fragment; also called CD16B NA1; human CD16B (NA1); not shown: six-histidine tag (His6)
T6 chain: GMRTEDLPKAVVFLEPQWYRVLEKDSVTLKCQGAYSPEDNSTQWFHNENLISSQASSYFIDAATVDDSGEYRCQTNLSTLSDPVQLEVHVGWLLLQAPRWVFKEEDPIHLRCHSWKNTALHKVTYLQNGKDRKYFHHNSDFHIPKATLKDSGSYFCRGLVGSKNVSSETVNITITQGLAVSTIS

human CD16A-His6 (V158) [7] = target: T7, human CD16A-His6 (V158) (human, UniProt P08637 17-208); assay: SPR; VHH-Fc captured on anti-human Fc surface; row head prints 'KD (nM)', koff/kon shows M
T7 construct: Bought (Sino Biologics) ECD fragment; also called CD16A 158V; human CD16A (V158); not shown: six-histidine tag (His6)

human CD16A-His6 (F158) [8] = target: T8, human CD16A-His6 (F158) (human, UniProt P08637 17-208); assay: as above
T8 construct: Bought ECD fragment; also called human CD16A (F158); not shown: six-histidine tag (His6)

[9] = target: T2, human CD16A (F158) on NK92mi cells; assay: flow cytometry, biotinylated VHH-Fc on NK92mi/CD16A 158F cells, without human IgG1 (CB6)
[10] = target: T2, human CD16A (F158) on NK92mi cells; assay: flow cytometry, biotinylated VHH-Fc on NK92mi/CD16A 158F cells, with 10 mg/ml human IgG1 CB6 as competitor
cyno CD16-His6 [11] = target: T4, cyno CD16-His6; assay: SPR; VHH-Fc captured on anti-human Fc surface
human CD16A-His6 (V158) [12] = target: T7, human CD16A-His6 (V158); assay: SPR; VHH-Fc captured on anti-human Fc surface
human CD16A-His6 (F158) [13] = target: T8, human CD16A-His6 (F158); assay: SPR; VHH-Fc captured on anti-human Fc surface
[14] = target: T2, human CD16A (F158) on NK92mi cells; assay: flow cytometry on live NK92mi/CD16A 158F cells
human CD16A-His6 (V158) [15] = target: T7, human CD16A-His6 (V158); assay: SPR; VHH-Fc captured on anti-human Fc surface; row head prints 'KD (nM)', text gives 0.08 nM, so M
human CD16A-His6 (F158) [16] = target: T8, human CD16A-His6 (F158); assay: as above
human CD16A-His6 (V158) [17] = target: T7, human CD16A-His6 (V158); assay: SPR; VHH-Fc captured on anti-human Fc surface; remark: listed apart in the source
human CD16A-His6 (F158) [18] = target: T8, human CD16A-His6 (F158); assay: SPR; VHH-Fc captured on anti-human Fc surface; remark: listed apart in the source
human CD16B-His6 (NA2) [19] = target: T5, human CD16B-His6 (NA2); assay: SPR; VHH-Fc captured on anti-human Fc surface; row head prints 'KD (nM)', taken as M like the rest of the table
human CD16B-His6 (NA1) [20] = target: T6, human CD16B-His6 (NA1); assay: as above

T4 sequence (Q8SPW2 17-208): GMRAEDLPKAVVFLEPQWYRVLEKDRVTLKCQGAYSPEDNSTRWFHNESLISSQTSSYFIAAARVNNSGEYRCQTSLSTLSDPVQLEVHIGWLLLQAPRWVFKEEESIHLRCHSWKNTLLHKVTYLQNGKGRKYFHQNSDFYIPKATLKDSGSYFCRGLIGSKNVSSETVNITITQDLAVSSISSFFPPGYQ

Binder | Binding signal at 300 nM (MFI) [1] [MFI] | EC50 [2] [nM] | EMAX (MFI) [2] [MFI] | Binding signal at 300 nM (MFI) [3] [MFI] | Kd (cyno CD16-His6 [4]) [nM] | Kd (human CD16B-His6 (NA2) [5]) [µM] | Kd (human CD16B-His6 (NA1) [6]) [nM] | Kd (human CD16A-His6 (V158) [7]) [nM] | Kd (human CD16A-His6 (F158) [8]) [nM] | EC50 [9] [nM] | EMAX (MFI) [9] [MFI] | EC50 [10] [nM] | EMAX (MFI) [10] [MFI] | koff (cyno CD16-His6 [11]) [s⁻¹] | kon (cyno CD16-His6 [11]) [M⁻¹ s⁻¹] | koff (human CD16A-His6 (V158) [12]) [s⁻¹] | kon (human CD16A-His6 (V158) [12]) [M⁻¹ s⁻¹] | koff (human CD16A-His6 (F158) [13]) [s⁻¹] | kon (human CD16A-His6 (F158) [13]) [M⁻¹ s⁻¹] | further results
BG525P (VHH-Fc) (VHH, Humanized BG523P variant, VHH-Fc) EVQLVESGGGLVQPGGSLRLSCAASGRTFGSYAVGWFRQAPGRGREFVAAIRRSDGTTDYVDSVKGRFTISRDNAKNTVYLQMNSLKPEDTAVYYCAASDSDYEPLGDYWGQGTLVTVSSEPKSSDKTHTCPPCPAPPAAGPSVFLFPPKPKDTLMISRTPEVTCVVVDVSHEDPEVKFNWYVDGVEVHNAKTKPREEQYNSTYRVVSVLTVLHQDWLNGKEYKCKVSNKALAAPIEKTISKAKGQPREPQVYTLPPSREEMTKNQVSLTCLVKGFYPSDIAVEWESNGQPENNYKTTPPVLDSDGSFFLYSKLTVDKSRWQQGNVFSCSVMHEALHNHYTQKSLSLSPGK | 75 | 10.3 | 9710 | 733 | 0.418 | 5.78 | 2310 | 0.404 | 0.575 | 1.65 | 23300 | 6.83 | 21900 | 0.000112 | 267000 | 0.000103 | 255000 | 0.00012 | 210000 | –
BG524P (VHH-Fc) (VHH, Humanized BG523P variant, VHH fused to the N-terminus of the human IgG1 variant Fc) EVQLVESGGGLVQPGGSLRLSCAASGRTFGSYAVGWFRQAPGKGREWVAAIRRSDATTDYVDSVKGRFTISRDNAKNSVYLQMNSLRPEDTAVYYCAASDSDYEPLGDYWGQGTLVTVSSEPKSSDKTHTCPPCPAPPAAGPSVFLFPPKPKDTLMISRTPEVTCVVVDVSHEDPEVKFNWYVDGVEVHNAKTKPREEQYNSTYRVVSVLTVLHQDWLNGKEYKCKVSNKALAAPIEKTISKAKGQPREPQVYTLPPSREEMTKNQVSLTCLVKGFYPSDIAVEWESNGQPENNYKTTPPVLDSDGSFFLYSKLTVDKSRWQQGNVFSCSVMHEALHNHYTQKSLSLSPGK | – | – | – | – | – | – | – | – | – | – | – | – | – | – | – | – | – | – | – | EC50 [14]: 4.42 nM; Kd (human CD16A-His6 (V158) [15]): 0.0816 nM; Kd (human CD16A-His6 (F158) [16]): 0.0825 nM; koff (human CD16A-His6 (V158) [17]): 0.00011 s⁻¹; kon (human CD16A-His6 (V158) [17]): 1.35e+06 M⁻¹ s⁻¹; koff (human CD16A-His6 (F158) [18]): 0.000119 s⁻¹; kon (human CD16A-His6 (F158) [18]): 1.44e+06 M⁻¹ s⁻¹; Kd (human CD16B-His6 (NA2) [19]): 1050 nM; Kd (human CD16B-His6 (NA1) [20]): 942 nM
BG526P (VHH-Fc) (VHH, Humanized BG523P variant, VHH-Fc) EVQLVESGGGLVQPGGSLRLSCAASGRTFGSYAVGWFRQAPGKGREFVAAIRRSDATTDYVDSVKGRFTISRDNAKNTVYLQMNSLKPEDTAVYYCAASDSDYEPLGDYWGQGTLVTVSSEPKSSDKTHTCPPCPAPPAAGPSVFLFPPKPKDTLMISRTPEVTCVVVDVSHEDPEVKFNWYVDGVEVHNAKTKPREEQYNSTYRVVSVLTVLHQDWLNGKEYKCKVSNKALAAPIEKTISKAKGQPREPQVYTLPPSREEMTKNQVSLTCLVKGFYPSDIAVEWESNGQPENNYKTTPPVLDSDGSFFLYSKLTVDKSRWQQGNVFSCSVMHEALHNHYTQKSLSLSPGK | 52 | 9.1 | 9200 | 473 | 0.49 | 7.64 | 2740 | 0.425 | 0.64 | 1.52 | 21600 | 4.95 | 19600 | 0.000147 | 301000 | 0.000133 | 289000 | 0.000148 | 230000 | –
